Data taken from article PMC6077200.

Molecular target: nicotinic acetylcholine receptors containing subunits α7, α9 and α10 of monocytic U937 cells (human (endogenous in U937)) (UniProt P36544)

B1: purified human endogenous C-reactive protein (natural protein)
chain: QTDMSRKAFVFPKESDTSYVSLKAPLTKPLKAFTVCLHFYTELSSTRGYSIFSYATKRQDNEILIFWSKDIGYSFTVGGSEILFEVPEVTVAPVHICTSWESASGIVEFWVDGKPRVRKSLKKGYTVGAEASIILGQEQDSFGGNFEGSQSLVGDIGNVNMWDFVLSPDEINTIYLGGPFSPNVLNWRALKYEVQGEVFTKPQLWP
- IC50 of eCRP for inhibition of BzATP-induced (100 µM) IL-1β release from LPS-primed U937 cells (the paper says this corresponds to about 40 nM pentameric CRP): 4.9 µg/mL
